Test [1] deals with T1, SARS-CoV-2 virus surface protein (RBD), wild type (SARS-CoV-2, UniProt P0DTC2 319-536). The test can be described thus: BLI (Octet), full IgG against RBD WT.
Test [2] addresses T1, SARS-CoV-2 virus surface protein (RBD), …. The test can be described thus: BLI (Octet), full IgG against SARS-CoV-2 RBD. A general note: Biolayer interferometry detects binding as a change in optical thickness at a sensor tip.
Protocol: The binding affinity (equilibrium dissociation constant, KD) of each fully human antibody to SARS-CoV-2 RBD was evaluated by biolayer interference (BLI) assay using Octet.
Test [3] has as its target SARS-CoV-2 spike D614 (pseudovirus) (SARS-CoV-2, UniProt P0DTC2 14-1273). The experiment in a line: cell-based or functional assay.

One may read the Kd as the free concentration of one partner at which half of the binding sites on the other are occupied at equilibrium, for simple one-to-one binding. A lower Kd goes with higher affinity. Broadly, the koff is a measure of how fast the partners let go of each other. High values mean a short-lived complex, low ones a long-lived complex. A word on the kon: it is the rate constant with which the complex forms.

B1: antibody No. 54 (fully human antibody, full IgG) (antibody, V domains shown)
VH: EVQLLESGGGLVQPGRSLRLSCAASGFNFDDYAMHWVRQAPGKGLEWVSGISWNSGTIGYADSVKGRFIISRDNAKNSLYLQMRSLKPEDTALYYCAKEELGPYSNRWYSSSDGMDVWGQGTTVTVSS
VL: ELVLTQPPSVSGAPGQRVTISCTGSSSNIGAGYDVHWYQQLPGTAPKLLIYGNSNRPSGVPDRFSGSKSGTSASLAITGLQAEDEADYYCQSYDSSLSGVVFGGGTKLTVL
In test [1], B1 returned an equilibrium dissociation constant (Kd) of 0.133 nM, a dissociation rate constant (koff) of 0.000108 s⁻¹ and a kon of 815000 M⁻¹ s⁻¹. The same molecule yielded a dissociation constant Kd in test [2] of 0.0313 nM.

B2: antibody No. 45 (fully human antibody, full IgG) (antibody, V domains shown)
VH: EVQLVQSGAEVKKPGSSVKVSCKASGGTFSSYDISWVRQAPGQGLEWMGGIIPILGIPNYAQKFQGRVTITADESTSTAYMELSSLRSEDTAVYYCARSRGYSGYGANWYFDLWGRGTLVTVSS
VL: ELVVTQPPSVSGAPGQRVTISCTGSSSNIGAGYDVHWYQQLPGTAPKLLIYGNSNRPSGVPDRFSGSKSGTSASLAITGLQAEDEAEYYCQSYDSSLSGPVFGGGTKLTVL
In test [2], B2 registered a Kd of 0.0708 nM.

B3: antibody No. 34 (fully human antibody, full IgG) (antibody, V domains shown)
VH: QVQLVQSGAEVKKPGSSVKVSCKTSGGTFSNYPLTWVRQAPGQGLEWLGGIIPIIGATNYAQKFQGRVTITADESTSTAFMELSSLRSEDTAVYYCARGRGYSGYGAAYYFDYWGQGTLVTVSS
VL: ELELTQPPSVSGAPGQRVTISCTGSSSNIGAGYDVHWYQQLPGTAPKLLIYGNSNRPSGVPDRFSGSKSGTSASLAITGLQAEDEADYYCQSYDSSLSGWVFGGGTKVTVL
Regarding B3, in test [2], the Kd was found to be 0.185 nM.

B4: antibody No. 61 (fully human antibody, full IgG) (antibody, V domains shown)
VH: EVQLLESGGALVQPGRSLRLSCAASGFTFDDYAMHWVRQGPGKGLEWVSGTTWNSGTIGYADSVKGRFIISRDNAENSLYLQMNSLRPEDTALYYCAKDIGSGDRPDAFHLWGQGTMVTVSS
VL: ELVLTQPPSVSVAPGKTARITCGGNNIGSKSVHWYQQKPGQAPVLVVYDDSDRPSGIPERFSGSNSGNTATLTISRVEAGDEADYYCQVWDSSSDRVVFGGGTKVTVL
Molecule B4 returned a dissociation constant (Kd) in test [2] of 0.0226 nM.

B5: antibody No. 33 (fully human antibody, full IgG) (antibody, V domains shown)
VH: EVQLVESGGGVVQPGRSLRLSCAASGLTFSDYGMHWVRQAPGKGLEWVAAISYDGSNKYYADSVKGRFTISRDNSKNTVYLQMNSLRAEDTAVYYCVRDSGLYGSGWSTYQYYAMDVWGQGTTVTVSS
VL: ELVLTQSPSVSVAPGKTARITCGGNNIGSKSVHWYQQKPGQAPVLVVYDDSDRPSGIPERFSGSNSGNTATLTISRVEAGDEADYYCQVWDSSSDHVVFGGGTKVTVL
Molecule B5 displayed an equilibrium dissociation constant (Kd) in test [2] of 0.0431 nM. Against the preceding molecule, the Kd is about 1.9-fold higher.

B6: antibody No. 37 (fully human antibody, full IgG) (antibody, V domains shown)
VH: EVQLVQSGAEVKKPGESLKISCRGSGYSFTSHWIAWVRQMPGKGLEWMGIIYPGDSDSRYSPSFQGQVTISADKSISTAYLQWSSLKASDTAIYYCARGPNLYNWFDSWGQGTLVTVSS
VL: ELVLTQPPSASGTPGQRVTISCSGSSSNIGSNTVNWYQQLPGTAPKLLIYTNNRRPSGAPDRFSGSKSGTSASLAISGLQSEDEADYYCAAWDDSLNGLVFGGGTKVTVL
B6 yielded a dissociation constant Kd in test [2] of 0.057 nM.

B7: antibody No. 48 (fully human antibody, full IgG) (antibody, V domains shown)
VH: EVQLVQSGGGLIQPGGSLRLSCAASGFTVSSNYMSWVRQPPGKGLEWVSVIYPGGSTFFADSVQGRFTISRDNSKNTLYLQMNSLRAEDTAVYYCARSYDFLTDYTDAFDIWGQGTMVTVSS
VL: ELELTQPPSVSGAPGQRVTISCTGSSSNIGAGYDVHWYQQLPGTAPKLLIYGNSNRPSGVPDRFSGSKSGTSASLAITGLQAEDEADYYCQSYDSSLSGLWVFGGGTKLTVQ
In test [2], B7 had a Kd of 0.184 nM.

B8: antibody No. 53 (fully human antibody, full IgG) (antibody, V domains shown)
VH: EVQLVQSGGGLIQPGGSLRLSCAASGFTVSSNYMSWVRQPPGKGLEWVSVIYPGGSTFFADSVQGRFTISRDNSKNTLYLQMNSLRAEDTAVYYCARSYDFLTDYTDAFDIWGQGTMVTVSS
VL: not shown
Turning to B8, binding in test [2] was characterised by a dissociation constant (Kd) of 3.39 nM.

B9: antibody No. 81 (fully human antibody, full IgG) (antibody, V domains shown)
VH: QVQLVQSGGGVVQPGRSLRLSCAASGFTFSSFAMHWVRQAPGKGLEWVAVISFDGSNKYYADSVKGQFTISRDNSKNTLYLQMNSLRAEDTAVYYCARGDYYGSGSYYNPSPFFDYWGQGTLVTVSS
VL: not shown
Molecule B9 came in with a Kd in test [2] of 0.0428 nM. Compared with the last molecule, the Kd is about 79-fold lower.

B10: antibody No. 59 (fully human antibody, full IgG) (antibody, V domains shown)
VH: QVQLQESGPGLVKPSETLSLTCTVSGDSISGSSYYWGWIRQPPGKGLEWIGNIFYSGSTYYNPSLKSRVTISVDTPKNQFSLKLSSVTAADTAMYYCARGSRGYYDILTGYSTGGFDYWGQGTLVTVSS
VL: ELQMTQSPATLSVSPGEGATLSCRASQSVSSNLAWYQHKPGQAPRLLIYDASTRATGIPARFSGSGSGTEFTLTISSLQSEDFAVYYCQQYNNWPLTFGGGTKLEIK
As for B10, binding in test [2] was characterised by a dissociation constant (Kd) of 0.0496 nM.

B11: antibody No. 32 (fully human antibody, full IgG) (antibody, V domains shown)
VH: EVQLVQSGGGLIQPGGSLRLSCAASEFIVSSNYMTWVRQAPGKGLEWVSIIYPGGSTYYADSVKGRFTISRDNSKNTLYLRMNSLRAEDTAVYYCARDLPLTGTTLDYWGQGTLVTVSS
VL: not shown
For B11, the “IC50, pseudovirus neutralization” value in test [3] was 4.34 ng/mL. In test [1], this molecule registered a Kd of 0.305 nM, a koff of 0.000193 s⁻¹ and a kon of 633000 M⁻¹ s⁻¹. In addition, binding in test [2] was put at a Kd of 0.147 nM.

The record behind these values is patent US20250263468A1 (CELLTRION, published 2025).
